# According to the nanobody polyreactivity screen of Harvey et al. (2022):
# Experiment: yeast display, Sf9 membrane polyspecificity reagent, FACS + sequencing; frameworks hold sequencing errors
# Procedure, shortened: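 Sorting gates, low and high (top ~1%), were placed on anti-HA fluorescence to track expression and on streptavidin fluorescence to track reagent binding. A clone's polyreactivity label is taken from the gate it came out of. The reagent was 10% biotinylated, detergent-solubilized Sf9 membrane, applied for 1 hour at 4 °C to galactose-induced yeast display cells.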
row,Sequence,polyreactivity (PSR sort gate)
1,QVQLEESGGGLVQAGGSLRLSCAASGFIFSRYDMGWYRQAPGKERELVAAITSGGSTYYADSVKGRFTISRDNAKNTVYLQMNSLKPEDTAVYYCNAYVRSDYDYWGQGTQVTVSS,high polyreactivity
2,QVQLVESGGALVQAGGSLRLSCAASGIVFKRYAMGWYRQAPGKEREFVATISYTGGRTYYADSVKGRFTISRDNAKNTVYLQMNSLKPEDTAVYYCATLYRSSKHQPLDYWGQGTQVNVSS,high polyreactivity
3,QVQLVESGGGLVQAGGSLRLSCAASGYTFFYAMGWYRQAPGKERQLVAGISRAGRTKYADSVKGRFTISRDNAKNTVYLQMNSLKPEDTAVYYCAAYARVSSSRFDYWGQGTQVTVSS,high polyreactivity
4,QVQLVESGGCLVQAGGSLRLSCAASGSIRSYAMGWYRQAPGKERELVAAITRSGGSTYYADSVKGRFTISRDNAKNTVYLPMKSLKPEDTAVYYCAARYTYSYPLFGSWGQGTQVTVSS,high polyreactivity
5,QVQLVESGGGLVQAGGSLRLSCAASGSTFEYNAMGWYRQAPGKERELVASSTNYADSVKGRFTISRDNAKNTVYLQMNSLKPEDTAVYYCAREQGVNRNHDYRGQGTQVTVSS,low polyreactivity
6,QVQLVESGGGLVQAGGSLRLSCAASVSNFPPYVMGWYRQAPGKERELVAAITWSSGSTYYADSVKGRFTISRDNAKNTVYLQMNRLKPEDTAVYYCAAVLPFKYDYWGQGTQVTVSS,low polyreactivity
7,QVQLVESGGGLVQAGGSLRLSCAASGSIFGTNAMGWYRPAPGKERELVAAINWSGGTTYYADSVKGRFTISRDIAKNTVYLQMNSLKPEDTAVFYCNVGYPSIYDYWGQGTQVTVSS,low polyreactivity
8,QVQLVESGGGLVQAGGSLRLSCAASGSTFDVYAMGWYRQAPGKERELVATITGSGGSTYYADSVKGRFTISRDNAKNTVYLQMNSLKPEDTAVYYCAARYPVSGGYDYWGQGTQVTVSS,low polyreactivity
9,QVQLVESGGGLVQAGGSLRLSCAASGRIFLGYAKGWYRQAPGKERELVAAINRSGSSTYYADSVKGRFTISRDIAKNTVYLQMNSLKPEHSAVYYCNARSGNRYGPRYDYWVQGTQVTVSS,high polyreactivity
10,QVQLVESGGGLVQAGGILRLSCAASGIIFNTNFMGWYRQAPGKERELVAAISRTNYADSVKGRFTISRDNAKNNVFLEMNSLHPEDTSVYDCIVELQYGRPGGQEFDYWGQGSQVTVSS,low polyreactivity
11,QVQLVESGGGLVQAGGSLRLSCAASGITSRLYAMGWYRQAPGKERELVAAINSIDGSTNYADSVKGRFTISRDNAKNTVYLQMNSLKPEDTAVYYCNKRYGYTGFSPRYDYWGQGTQVTVSS,low polyreactivity
12,QVQLVESGGGLFQAGGSLRVSCAASGRTFVNYAMGWYRQAAGKERELVAAISTSGGSTYYADSVKGRFTISRDNAKNTDYYQRNSLKPEDTAVYYCKKVRYLAVNLGQFTFDYWGQGTQGTVSS,low polyreactivity
13,QVQLVESGGGLVQAGGSLRLSCAASGRIFSNYAMGWYRHAPGKEREFVAAISGSGGITYYADSVKGRFTISRDNAKNTFYLQMNSLKPEDTAVYYCARRLHYVPLISYNYWGQGTQVTVSS,low polyreactivity
14,QVHLVESGGGLVQAGGSLRLSCAATGSTFPSYTMGWYRQAPGKERELVAVITLRGGSTYYADSVKGRFTISRDNAKNTVYLQMNSLKPEDTAVYYCAANGQLQGWFDMYYWGQGTQVTVSS,low polyreactivity
15,QVQLVESGGGLVQAGGSLRLSCGASGFTFPYYAMGWYIQAPGKERELVAAITSSGGSTYYADSVKGRFTISRDNAKNTVYLQMNSLNPEDTAVYYCAVDAYYYKWYDYWGQGTQVTVSS,high polyreactivity
16,QVQLVESGGGLVQAGGSLRLSCAASGRIISRNAMGWYRQAPGKERELVAAISGSGSRTFYADSVKGRFTISRDNAKNTVYLQMNSLKPEDTAVYYCAADRSSYSRFYYWGQGTQVTVSS,high polyreactivity
17,QVQLVESGGGLVQAGGSLRLSCAASGLTFAVYAMGWYRQAPGKERELVASITRSGGSTYYADSVKGRFTISRDNAKNTVYLQMNSLKPEDTAVYYCAAQTIYSGRYYYYSRYDYWGQGTQVTVSS,high polyreactivity
18,QVQLVESGGGLVQAGGSLRLSCAASGRTFWGYAMGWYRPAPGKERELVAAISSGGDTTYADSVKGRFTISRDNAKNTVYLQMNSLKPEDTAVFYCAADRWYSRYTRYGYWGQGTQVTVSS,low polyreactivity
19,QVQLVESGGGLVQAGGSLRLSCAASGFTLKYNTMGWYRQAPGKERELVAAITSSGVSTYYSDSVKGRFTISRDNAKNTVYLQMNSLKPEDTAVYYCNARERYSYWGQGTQVTVSS,high polyreactivity
20,QVQLVESGGGLVQAGGSLRLSCASYGYTFFNYAKGWYRQAPGKERELVAAITTGGSTYYADSVKGRFTISRDNAKNTVYLQMNSLKPEDTAVYYCPFDYWGQGTQVTVSS,high polyreactivity
21,QVQLVEAGGGLVQAGGSLRLSCAASGSIFVGNAMGWYRQAPGKERELVAAISSSGGRKFYADSVKGRFTISRDNAKNTVYLQMISLKPEDTAVYYCAAVYTHWQQRMDYWGQGTQVTVSS,high polyreactivity
22,QVQLVESGGGLVQAGGSLRLSCAASGRTFGGNAMGWYRQAPGKERELVAAITGRGGSTYYADSVKGRFTISRDNAKNTVYLQMNSLKPEDTAVYYCAKQFKRGYGYDYWGQGTQVTVSS,low polyreactivity

row,Sequence,polyreactivity (PSR sort gate)
1,QVQRVESGGGLVQAGGSLRLSCAASGRIFSNYAMGWYRQAPGKEREFVAAISGSGGSTYYADSVKGRFTISRDNAKNTVYLQMNSLKPEDTAVYYCSTSGPQYYSRNFDYWGQGTQVTVSS,low polyreactivity
2,QVQLVESGGGLVQAGGSLRLSCAASGRIFSYNAMGWYRPAPGKERELVASISWSGGRTYYADSVKGRFTISRDNAKNTVYLQMNSLKPEDTAVYYCAVRYRGYGYDWGQGTQVTVSS,high polyreactivity
3,QVQLVESGGGLVQAGGSLRLICAASGFIFNSNAMGWYRQAPGKERELVAAISGRGGSTYYADSVKGRVTISRDNAKNTVYLQMNSLKPEDTAVYYCAAKLRPRYYVSGYDYWGQGTQVTVSS,high polyreactivity
4,QVQLVESGGGLVQAGGSLRLSCAASGFIFGHYAMGWYRQAPGKERELVAAITRGGRTNYADSVKGRFTISRDNAKNTVYLQMNSLKPEDTAVYYCNALGKALYRSRFYYWGQGTQVTVSS,high polyreactivity
5,QVQLVESGGGLVQAGCSLRLSCAASGFIFYWYAMVWKRQAPGKERELVAAISYDTGSTYYADSVKGRFTISRDKAKNSVYLPMNSLKPEDTAVYYCAADVYYKYYYWGQGSQVTVSS,high polyreactivity
6,QVQLVESGGGLVQAGGSLRLSCAASGSTFYVYDMGWYRQAPGKERELVAAITRRGGSTYYADSVKGRFTISRDNAKNTVYLQMNSLKPVDTAVYYCAARTAYYPTHRYYWGQGTQVTVSS,high polyreactivity
7,QVQLVESGGGLVQAGGSLRLSCAASGSTFIRNAMGWYRQAPGKERELVAAISGSGVSTRYADSVKGRFTISRDNAKNTVYLQMNSLKPEDTAVYYCAKRKQYPYTMGYWGQGTQVTVSS,high polyreactivity
8,QVQLVESGGGLVQAGGSLPLSSAASGITLRYYAMRWYRQAPGKERELVAAMSGRGGGTYYADSVKGRFTISRDNAKNTVYLQMNSLKPEDTAVYYCNAVGQQQVEYEYWGQGTQVTVSS,high polyreactivity
9,QFQLVESGGGLVQAGGSLRLSCAASGRTFGRYAMGRDRPAPGKERELVAAINSGGSTYYADSVKGRFTISRDNAKNTVYLQMMSLKPEDTAVYYCDTQWTWKLGYWGQGTQVTVSS,high polyreactivity
10,QVQLVEAGGGFVQAGGRLRLSCAASGSIFTLNTRGWYSPAPGKEREWVAAMTGSGGITYSADSVKGRFTISRDKAKKTVYLQLNSLKPEETAVYYCAADTGYVHAGYWGQGTQVTVSS,low polyreactivity
11,QVQLVESGGGLVQAGGSLRLSCADSGRTSYYYVMGWYRQAPGKERELVAAIRSRGGSTYYADSVKGRFTISRDNAKNTVYLQMNSLKPEDTAVYYCAARYGFWSYDFGYWGLGTQVTVSS,high polyreactivity
12,QVQLVESGGGLVQAGGSLRLSCAASGITFYVNAMGWYRQAPGKERELVAGIDSGGSTYYADSVKGRFTISRDNAKNTVYLQMNSLKPEDTAVYYCAARGSDYIRWYVGGRYGYWGQGTQVTVSS,low polyreactivity
13,QVQLVESGGGLVQAGGSLRLSCAASGNTFNNNAMGWYRQAPGKERELVAITGDGGSTYYADSVKGRFTISRDNAKNTVYLQMNSLKPEDTAVYYCAADYLYRYQTMGYWGQGTQVTVSS,low polyreactivity
14,QVQLVESGGGLLQAGGSLRLSCAASGRIFVHYVMGWYRQAPGKERELVAAINVSGGGTYYADSVKGRFTISRDNAKNTVYLQMNCLKPEDTAVFYCAAGTTQDWPFSSRSYFGHDSWGQGTQVTVSS,low polyreactivity
15,QVHLVESGGVLVQAGGSLRLSCAASGSIFDDYAMGWYRQAPGKERELVAAISSSGTSTYYADSVKGRFTISRDTANNTVYLQMNSLKPEDTAVYYCAARSAILDYWGQGTQVTVSS,low polyreactivity
16,QVQLVESGGGLVQAGGSLRLSCAASGSTFYYNAMGWYRQAPGKETELVADISWRGGITYYADSVKGRFTISRDNAKNTVYLQMNSLKPEDTAVYYCNADAESFDDGYWGQGTQVTVSS,low polyreactivity
17,QVQLVESGGGLVQAGGSLRLSCAASGNTFRHNTMGWYRQAPGKERELVSTNYADSVKGRFTISRDNAKNTVYLQMNSLKPEDTAVYYCNADGTFGYEYWGHGTQVTVSS,low polyreactivity
18,QVQLVESGGGLVQAGGSLRLSCAASGITFGWNAMGWYRQAPGKEWELVAAITEDGYSTYYADSVKGRFTISRDNEKNTVYLQMNSLKPEDTAVYYCAAEYYDVYTYVQYDSWGQGTQVTVSS,high polyreactivity
19,QVQLVESGGGLVQAGGSLRLSCAASGRIFVGYAMGWYRPAPGKERELVAAINRSGSCTYYADSVKVRFTISRDNAKITGYLQMNSLKPEDTAVYYCNARSGNRYGPRYDDWGQGTQVTVSS,high polyreactivity
20,QVQLVESGGGLVQAGGSLRLSCAASGLTFEYYTMGWYRQAPGKERELVAAITSSGGSTYYADSVKGRFTISRDNAKNTVYLQMNSLKPEDTAVYYCAADYYTWYGILYDYWGQGTQVTVSS,low polyreactivity
21,QVQLVESGGGLVQAGGSLRLSCAASGSIFPAYAMGWYRQAPGKERELVAAITFSGGSTYYADSVKGRFTISRDNAKNTVYLQMNSLKPEDTAVYYCATDSYGWRFNRAITSYGGDYWGQGTQVTVSS,low polyreactivity
